# Measurements published in IntAct's records for PubMed 30126976.
# B1: Ribosomal protein S6 kinase alpha-2 (Homo sapiens), Q15349 (parent)
# chain: MDLSMKKFAVRRFFSVYLRRKSRSKSSSLSRLEEEGVVKEIDISHHVKEGFEKADPSQFELLKVLGQGSYGKVFLVRKVKGSDAGQLYAMKVLKKATLKVRDRVRSKMERDILAEVNHPFIVKLHYAFQTEGKLYLILDFLRGGDLFTRLSKEVMFTEEDVKFYLAELALALDHLHSLGIIYRDLKPENILLDEEGHIKITDFGLSKEAIDHDKRAYSFCGTIEYMAPEVVNRRGHTQSADWWSFGVLMFEMLTGSLPFQGKDRKETMALILKAKLGMPQFLSGEAQSLLRALFKRNPCNRLGAGIDGVEEIKRHPFFVTIDWNTLYRKEIKPPFKPAVGRPEDTFHFDPEFTARTPTDSPGVPPSANAHHLFRGFSFVASSLIQEPSQQDLHKVPVHPIVQQLHGNNIHFTDGYEIKEDIGVGSYSVCKRCVHKATDTEYAVKIIDKSKRDPSEEIEILLRYGQHPNIITLKDVYDDGKFVYLVMELMRGGELLDRILRQRYFSEREASDVLCTITKTMDYLHSQGVVHRDLKPSNILYRDESGSPESIRVCDFGFAKQLRAGNGLLMTPCYTANFVAPEVLKRQGYDAACDIWSLGILLYTMLAGFTPFANGPDDTPEEILARIGSGKYALSGGNWDSISDAAKDVVSKMLHVDPHQRLTAMQVLKHPWVVNREYLSPNQLSRQDVHLVKGAMAATYFALNRTPQAPRLEPVLSSNLAQRRGMKRLTSTRL
# B2: Protein FAM163B (Homo sapiens), P0C2L3 (parent)
# chain: MTAGTVVITGGILATVILLCIIAVLCYCRLQYYCCKKDESEEDEEEPDFAVHSHLPPLHSNRNLVLTNGPALYPTASTSFSQKSPQARALCRSCSHCEPPTFFLQEPPEEEEDVLNGGERVLYKSVSQEDVELPPGGFGGLQALNPNRLSAMREAFARSRSISTDV
# B3: FERM and PDZ domain-containing protein 4 (Homo sapiens), Q14CM0 (parent)
# chain: MDVFSFVKIAKLSSHRTKSSGWPPPSGTWGLSQVPPYGWEMTANRDGRDYFINHMTQAIPFDDPRLESCQIIPPAPRKVEMRRDPVLGFGFVAGSEKPVVVRSVTPGGPSEGKLIPGDQIVMINDEPVSAAPRERVIDLVRSCKESILLTVIQPYPSPKSAFISAAKKARLKSNPVKVRFSEEVIINGQVSETVKDNSLLFMPNVLKVYLENGQTKSFRFDCSTSIKDVILTLQEKLSIKGIEHFSLMLEQRTEGAGTKLLLLHEQETLTQVTQRPSSHKMRCLFRISFVPKDPIDLLRRDPVAFEYLYVQSCNDVVQERFGPELKYDIALRLAALQMYIATVTTKQTQKISLKYIEKEWGLETFLPSAVLQSMKEKNIKKALSHLVKANQNLVPPGKKLSALQAKVHYLKFLSDLRLYGGRVFKATLVQAEKRSEVTLLVGPRYGISHVINTKTNLVALLADFSHVNRIEMFSEEESLVRVELHVLDVKPITLLMESSDAMNLACLTAGYYRLLVDSRRSIFNMANKKNTATQETGPENKGKHNLLGPDWNCIPQMTTFIGEGEQEAQITYIDSKQKTVEITDSTMCPKEHRHLYIDNAYSSDGLNQQLSQPGEAPCEADYRSLAQRSLLTLSGPETLKKAQESPRGAKVSFIFGDFALDDGISPPTLGYETLLDEGPEMLEKQRNLYIGSANDMKGLDLTPEAEGIQFVENSVYANIGDVKSFQAAEGIEEPLLHDICYAENTDDAEDEDEVSCEEDLVVGEMNQPAILNLSGSSDDIIDLTSLPPPEGDDNEDDFLLRSLNMAIAAPPPGFRDSSDEEDSQSQAASFPEDKEKGSSLQNDEIPVSLIDAVPTSAEGKCEKGLDNAVVSTLGALEALSVSEEQQTSDNSGVAILRAYSPESSSDSGNETNSSEMTESSELATAQKQSENLSRMFLATHEGYHPLAEEQTEFPASKTPAGGLPPKSSHALAARPATDLPPKVVPSKQLLHSDHMEMEPETMETKSVTDYFSKLHMGSVAYSCTSKRKSKLADGEGKAPPNGNTTGKKQQGTKTAEMEEEASGKFGTVSSRDSQHLSTFNLERTAFRKDSQRWYVATEGGMAEKSGLEAATGKTFPRASGLGAREAEGKEEGAPDGETSDGSGLGQGDRFLTDVTCASSAKDLDNPEDADSSTCDHPSKLPEADESVARLCDYHLAKRMSSLQSEGHFSLQSSQGSSVDAGCGTGSSGSACATPVESPLCPSLGKHLIPDASGKGVNYIPSEERAPGLPNHGATFKELHPQTEGMCPRMTVPALHTAINTEPLFGTLRDGCHRLPKIKETTV
# Variants of: B1
# Conditions: with scrib_human SCRIB
row,Variant,effect of a mutation on the interaction
1,S730A,with no effect

# Variants of: B1
# Conditions: with dlg1_human DLG1, Q12959
# Target sequence in this assay (Q12959 whole entry, looked up): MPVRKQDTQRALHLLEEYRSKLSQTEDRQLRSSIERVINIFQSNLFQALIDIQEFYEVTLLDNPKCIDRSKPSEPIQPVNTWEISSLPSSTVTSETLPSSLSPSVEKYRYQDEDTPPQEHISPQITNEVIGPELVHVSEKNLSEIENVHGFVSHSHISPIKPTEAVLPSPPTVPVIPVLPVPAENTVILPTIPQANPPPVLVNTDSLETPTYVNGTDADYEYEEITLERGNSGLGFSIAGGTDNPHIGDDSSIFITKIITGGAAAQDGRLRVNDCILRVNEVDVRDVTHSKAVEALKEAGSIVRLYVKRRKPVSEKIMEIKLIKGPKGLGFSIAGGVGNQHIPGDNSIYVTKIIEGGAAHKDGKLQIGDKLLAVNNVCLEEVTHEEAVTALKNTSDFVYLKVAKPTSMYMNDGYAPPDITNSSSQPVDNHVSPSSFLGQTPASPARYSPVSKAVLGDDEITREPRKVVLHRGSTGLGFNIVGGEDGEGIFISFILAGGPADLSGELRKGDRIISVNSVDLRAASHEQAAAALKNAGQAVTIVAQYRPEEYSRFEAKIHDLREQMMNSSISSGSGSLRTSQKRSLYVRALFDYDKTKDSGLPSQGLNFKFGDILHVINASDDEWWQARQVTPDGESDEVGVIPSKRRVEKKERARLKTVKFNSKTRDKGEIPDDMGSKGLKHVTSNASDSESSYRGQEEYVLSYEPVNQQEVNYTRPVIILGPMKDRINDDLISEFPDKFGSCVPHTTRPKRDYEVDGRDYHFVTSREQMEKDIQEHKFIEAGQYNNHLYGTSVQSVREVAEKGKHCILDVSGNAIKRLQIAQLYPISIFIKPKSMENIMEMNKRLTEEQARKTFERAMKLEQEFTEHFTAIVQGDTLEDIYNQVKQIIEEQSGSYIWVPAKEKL
row,Variant,effect of a mutation on the interaction
1,S730E,increasing interaction strength

# Variants of: B1
# Conditions: with scrib_human SCRIB
# Remark: another data set of the same source
# Target sequence in this assay (Q14160 whole entry): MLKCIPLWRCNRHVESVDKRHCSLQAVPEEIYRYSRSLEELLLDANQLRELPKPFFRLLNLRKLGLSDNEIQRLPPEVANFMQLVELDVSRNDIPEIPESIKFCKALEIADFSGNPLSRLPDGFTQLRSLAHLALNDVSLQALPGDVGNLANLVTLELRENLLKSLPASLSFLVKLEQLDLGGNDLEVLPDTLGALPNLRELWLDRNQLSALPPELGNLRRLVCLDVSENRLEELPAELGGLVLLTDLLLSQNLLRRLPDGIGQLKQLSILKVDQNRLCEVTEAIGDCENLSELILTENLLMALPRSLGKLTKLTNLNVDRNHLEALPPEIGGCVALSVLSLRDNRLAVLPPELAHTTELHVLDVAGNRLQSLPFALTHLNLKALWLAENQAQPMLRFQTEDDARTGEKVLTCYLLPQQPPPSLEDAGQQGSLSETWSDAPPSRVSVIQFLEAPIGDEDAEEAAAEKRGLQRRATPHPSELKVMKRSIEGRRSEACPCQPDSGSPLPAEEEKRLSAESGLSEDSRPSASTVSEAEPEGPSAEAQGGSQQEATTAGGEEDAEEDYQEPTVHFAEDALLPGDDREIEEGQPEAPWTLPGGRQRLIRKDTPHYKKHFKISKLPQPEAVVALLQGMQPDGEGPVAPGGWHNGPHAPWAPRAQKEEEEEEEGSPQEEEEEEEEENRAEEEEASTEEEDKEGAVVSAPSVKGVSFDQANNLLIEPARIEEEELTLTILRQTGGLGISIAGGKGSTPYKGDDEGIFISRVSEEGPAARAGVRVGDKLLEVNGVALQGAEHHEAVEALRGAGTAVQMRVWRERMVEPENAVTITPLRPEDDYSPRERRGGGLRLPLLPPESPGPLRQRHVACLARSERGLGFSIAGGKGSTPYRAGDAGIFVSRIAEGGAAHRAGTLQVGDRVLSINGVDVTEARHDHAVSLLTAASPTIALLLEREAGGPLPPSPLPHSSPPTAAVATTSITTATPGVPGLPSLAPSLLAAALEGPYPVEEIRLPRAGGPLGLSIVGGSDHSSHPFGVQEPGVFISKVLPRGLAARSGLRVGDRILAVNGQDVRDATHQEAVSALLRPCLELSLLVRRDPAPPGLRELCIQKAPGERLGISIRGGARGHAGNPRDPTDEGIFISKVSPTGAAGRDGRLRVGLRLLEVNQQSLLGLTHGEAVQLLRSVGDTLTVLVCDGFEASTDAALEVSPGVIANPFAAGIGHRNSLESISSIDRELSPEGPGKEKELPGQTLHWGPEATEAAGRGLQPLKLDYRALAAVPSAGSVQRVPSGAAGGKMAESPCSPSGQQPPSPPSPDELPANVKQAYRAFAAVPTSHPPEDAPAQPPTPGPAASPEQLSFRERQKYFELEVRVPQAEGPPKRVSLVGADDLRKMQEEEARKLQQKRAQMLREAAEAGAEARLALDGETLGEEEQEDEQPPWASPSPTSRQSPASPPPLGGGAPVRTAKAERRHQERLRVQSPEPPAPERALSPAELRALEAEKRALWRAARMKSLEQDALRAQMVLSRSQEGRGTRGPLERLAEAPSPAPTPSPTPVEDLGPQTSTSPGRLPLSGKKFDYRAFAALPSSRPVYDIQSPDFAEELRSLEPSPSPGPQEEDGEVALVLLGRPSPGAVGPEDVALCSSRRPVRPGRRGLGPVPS
row,Variant,effect of a mutation on the interaction
1,S730E,increasing interaction strength

# Variants of: B1
# Conditions: with shan1_human SHANK1, Q9Y566
# Chain of shan1_human SHANK1, Q9Y566 (Q9Y566 whole entry): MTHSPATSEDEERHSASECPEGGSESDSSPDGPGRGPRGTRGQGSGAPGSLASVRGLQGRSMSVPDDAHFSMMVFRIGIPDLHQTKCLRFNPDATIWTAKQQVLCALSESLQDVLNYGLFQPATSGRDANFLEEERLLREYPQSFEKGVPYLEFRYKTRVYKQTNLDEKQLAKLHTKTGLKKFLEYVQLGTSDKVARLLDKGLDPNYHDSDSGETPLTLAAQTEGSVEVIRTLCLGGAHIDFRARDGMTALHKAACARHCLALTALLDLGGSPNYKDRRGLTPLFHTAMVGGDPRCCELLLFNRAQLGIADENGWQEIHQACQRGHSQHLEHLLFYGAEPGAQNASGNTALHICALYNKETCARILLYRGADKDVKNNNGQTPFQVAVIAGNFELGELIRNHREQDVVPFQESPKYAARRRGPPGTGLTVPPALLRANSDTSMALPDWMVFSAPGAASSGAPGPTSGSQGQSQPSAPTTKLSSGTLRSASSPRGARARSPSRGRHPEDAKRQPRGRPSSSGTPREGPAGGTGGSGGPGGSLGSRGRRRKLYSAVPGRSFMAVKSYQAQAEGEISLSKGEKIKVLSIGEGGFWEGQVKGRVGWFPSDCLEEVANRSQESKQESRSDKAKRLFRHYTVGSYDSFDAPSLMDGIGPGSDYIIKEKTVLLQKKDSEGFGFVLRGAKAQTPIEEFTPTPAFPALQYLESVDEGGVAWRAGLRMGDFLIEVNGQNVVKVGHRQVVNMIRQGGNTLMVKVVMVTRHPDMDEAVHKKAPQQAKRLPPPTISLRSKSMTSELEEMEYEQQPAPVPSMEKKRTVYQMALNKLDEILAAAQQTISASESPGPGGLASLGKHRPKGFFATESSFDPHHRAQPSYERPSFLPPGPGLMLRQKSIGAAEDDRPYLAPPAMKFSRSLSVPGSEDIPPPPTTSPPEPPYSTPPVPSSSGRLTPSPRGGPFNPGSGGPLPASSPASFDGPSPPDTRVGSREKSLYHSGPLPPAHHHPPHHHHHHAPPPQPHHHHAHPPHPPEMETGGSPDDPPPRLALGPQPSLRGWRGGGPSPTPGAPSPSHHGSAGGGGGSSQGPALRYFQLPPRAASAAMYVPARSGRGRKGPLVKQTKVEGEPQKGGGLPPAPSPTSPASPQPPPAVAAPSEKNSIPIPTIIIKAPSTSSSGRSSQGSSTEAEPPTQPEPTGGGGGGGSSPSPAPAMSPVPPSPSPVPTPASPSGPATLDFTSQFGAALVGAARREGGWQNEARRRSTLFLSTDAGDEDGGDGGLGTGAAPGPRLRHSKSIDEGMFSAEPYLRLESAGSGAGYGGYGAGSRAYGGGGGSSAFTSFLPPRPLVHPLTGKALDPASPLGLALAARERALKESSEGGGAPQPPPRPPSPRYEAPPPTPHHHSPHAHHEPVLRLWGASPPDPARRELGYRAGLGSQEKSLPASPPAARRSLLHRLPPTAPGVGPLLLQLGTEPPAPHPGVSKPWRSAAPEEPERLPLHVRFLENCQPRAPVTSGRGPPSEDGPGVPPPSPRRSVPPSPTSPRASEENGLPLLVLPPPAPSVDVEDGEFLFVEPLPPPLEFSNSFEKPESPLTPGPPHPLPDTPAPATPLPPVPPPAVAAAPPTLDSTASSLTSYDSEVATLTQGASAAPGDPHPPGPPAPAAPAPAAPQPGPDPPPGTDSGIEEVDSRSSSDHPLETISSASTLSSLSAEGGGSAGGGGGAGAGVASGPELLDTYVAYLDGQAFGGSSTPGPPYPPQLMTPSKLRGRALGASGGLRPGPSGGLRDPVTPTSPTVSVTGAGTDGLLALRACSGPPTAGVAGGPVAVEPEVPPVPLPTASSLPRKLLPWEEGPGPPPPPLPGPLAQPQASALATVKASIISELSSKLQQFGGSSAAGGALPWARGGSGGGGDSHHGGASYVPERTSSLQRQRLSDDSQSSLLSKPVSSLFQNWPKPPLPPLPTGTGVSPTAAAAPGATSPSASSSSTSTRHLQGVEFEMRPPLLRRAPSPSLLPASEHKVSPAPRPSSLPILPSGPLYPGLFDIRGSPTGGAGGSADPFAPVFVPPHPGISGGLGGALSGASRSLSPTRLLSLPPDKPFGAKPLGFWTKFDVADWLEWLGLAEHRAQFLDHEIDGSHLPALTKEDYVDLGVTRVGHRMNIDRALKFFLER
row,Variant,effect of a mutation on the interaction
1,S730E,decreasing interaction strength

# Variants of: B1
# Conditions: with scrib_human SCRIB
# Remark: another data set of the same source
# Target sequence in this assay (Q14160 whole entry): as the sequence (Q14160 whole entry) above
row,Variant,effect of a mutation on the interaction
1,S730E,causing an interaction

# Variants of: B2
# Conditions: with scrib_human SCRIB
# Target sequence in this assay (Q14160 whole entry): as above
row,Variant,effect of a mutation on the interaction
1,MTAGTVVITGGILATVILLCIIAVLCYCRLQYYCCKKDESEEDEEEPDFAVHSHLPPLHSNRNLVLTNGPALYPTASTSFSQKSPQARALCRSCSHCEPPTFFLQEPPEEEEDVLNGGERVLYKSVSQEDVELPPGGFGGLQALNPNRLSAMREAFARSRSISEDV [T164E],disrupting interaction strength

# Variants of: B2
# Conditions: with dlg1_human DLG1, Q12959
# Target sequence in this assay (Q12959 whole entry, looked up): as the sequence (Q12959 whole entry, looked up) above
row,Variant,effect of a mutation on the interaction
1,MTAGTVVITGGILATVILLCIIAVLCYCRLQYYCCKKDESEEDEEEPDFAVHSHLPPLHSNRNLVLTNGPALYPTASTSFSQKSPQARALCRSCSHCEPPTFFLQEPPEEEEDVLNGGERVLYKSVSQEDVELPPGGFGGLQALNPNRLSAMREAFARSRSISEDV [T164E],disrupting interaction strength

# Variants of: B2
# Conditions: with scrib_human SCRIB
# Remark: another data set of the same source
# Target sequence in this assay (Q14160 whole entry): as the sequence (Q14160 whole entry) above
row,Variant,effect of a mutation on the interaction
1,MTAGTVVITGGILATVILLCIIAVLCYCRLQYYCCKKDESEEDEEEPDFAVHSHLPPLHSNRNLVLTNGPALYPTASTSFSQKSPQARALCRSCSHCEPPTFFLQEPPEEEEDVLNGGERVLYKSVSQEDVELPPGGFGGLQALNPNRLSAMREAFARSRSIETDV [S163E],with no effect

# Variants of: B3
# Conditions: with scrib_human SCRIB
# Target sequence in this assay (Q14160 whole entry): as the sequence (Q14160 whole entry) above
row,Variant,effect of a mutation on the interaction
1,T1320E,disrupting interaction strength

# Variants of: B3
# Conditions: with dlg1_human DLG1, Q12959
# Target sequence in this assay (Q12959 whole entry, looked up): as the sequence (Q12959 whole entry, looked up) above
row,Variant,effect of a mutation on the interaction
1,T1320E,disrupting interaction strength
